# B1: LHL (growth factor comprising H flanked by two L molecules) (designed binder)
# chain: MKKTAIAIAVALAGFATVAQAAPKDNTEEVTIKANLIFANGSTQTAEFKGTFEKATSEAYAYADTLKKDNGEYTVDVADKGYTLNIKFAGKEATNRNTDGSTDYGILQINSRWGGLTLKEEVTIKANLIFANGSTQTAEFKGTFEKATSEAYAYADTLKKDNGEYTVDVADKGYTLNIKFAG
# notes: also called LIIL [sic]
# Target: T1, Streptavidin (streptavidin column) (UniProt P22629 37-163, limits assumed)
# T1 construct: Immobilised on column matrix
# Assay: affinity column (streptavidin column without kappa)
# T1 sequence (P22629 37-163 limits assumed): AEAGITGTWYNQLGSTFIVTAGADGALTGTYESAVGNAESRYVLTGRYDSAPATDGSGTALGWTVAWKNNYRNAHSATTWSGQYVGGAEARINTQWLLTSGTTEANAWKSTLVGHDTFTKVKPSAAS
binder,measurement,value
B1,binding result,no binding
